Experimental data published in US20160176932A1 (Janssen / Centocor, published 2016).

T1: B1_N67I, S215P loop (RSV B1, UniProt O36634 26-540)
T1 construct: Whole entry named; it begins with the signal peptide 1-26; also called PreFL N67I S215P, RSV B1, fibritin, Loop; F24-N67I + S215P: RSV B1, linker stabilized, fibritin
T1 chain: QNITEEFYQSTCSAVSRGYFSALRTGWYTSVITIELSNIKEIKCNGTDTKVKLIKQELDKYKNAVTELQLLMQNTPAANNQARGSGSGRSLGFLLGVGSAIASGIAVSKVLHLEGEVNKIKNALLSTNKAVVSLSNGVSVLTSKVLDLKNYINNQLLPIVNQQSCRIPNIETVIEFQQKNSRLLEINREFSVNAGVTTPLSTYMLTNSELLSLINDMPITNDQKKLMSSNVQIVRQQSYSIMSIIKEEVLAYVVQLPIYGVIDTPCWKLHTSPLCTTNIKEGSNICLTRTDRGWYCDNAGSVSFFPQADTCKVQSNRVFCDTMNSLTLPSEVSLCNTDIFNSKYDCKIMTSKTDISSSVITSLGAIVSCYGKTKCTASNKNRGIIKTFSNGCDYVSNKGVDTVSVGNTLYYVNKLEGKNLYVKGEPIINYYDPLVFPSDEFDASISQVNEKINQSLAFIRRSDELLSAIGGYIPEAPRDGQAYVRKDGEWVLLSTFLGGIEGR

T2: B1_N67I, S215P (RSV B1, UniProt O36634 27-109; O36634 137-540)
T2 construct: also called PreF N67I S215P, RSV B1, fibritin
T2 chain 1: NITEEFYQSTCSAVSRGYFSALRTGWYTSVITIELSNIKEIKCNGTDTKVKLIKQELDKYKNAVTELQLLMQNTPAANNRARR
T2 chain 2: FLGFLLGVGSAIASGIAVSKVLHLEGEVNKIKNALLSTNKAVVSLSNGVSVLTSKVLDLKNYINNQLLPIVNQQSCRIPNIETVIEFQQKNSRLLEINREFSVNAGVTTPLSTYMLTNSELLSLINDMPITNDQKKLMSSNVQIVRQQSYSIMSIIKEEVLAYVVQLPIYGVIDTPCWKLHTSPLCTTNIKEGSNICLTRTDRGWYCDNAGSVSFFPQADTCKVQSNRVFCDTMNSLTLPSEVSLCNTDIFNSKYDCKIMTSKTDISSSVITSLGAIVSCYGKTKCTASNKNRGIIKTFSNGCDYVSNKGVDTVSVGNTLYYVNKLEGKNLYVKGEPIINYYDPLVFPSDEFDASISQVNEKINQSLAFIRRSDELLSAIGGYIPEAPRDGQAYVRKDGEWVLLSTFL

B1: CR9501 (antibody, V domains shown)
VH: QVQLVQSGPGLVKPSQTLALTCNVSGASINSDNYYWTWIRQRPGGGLEWIGHISYTGNTYYTPSLKSRLSMSLETSQSQFSLRLTSVTAADSAVYFCAACGAYVLISNCGWFDSWGQGTQVTVSS
VL: EIVMTQSPSSLSASIGDRVTITCQASQDISTYLNWYQQKPGQAPRLLIYGASNLETGVPSRFTGSGYGTDFSVTISSLQPEDIATYYCQQYQYLPYTFAPGTKVEIK
notes: Monoclonal antibody with the variable regions of 58C5; Biotinylated and immobilised on streptavidin sensors in the Octet assays; also called pre-fusion-specific Mab CR9501

Key:
A2_F24 VI56IV (RSV A2) = A2_F24 VI56IV (RSV A2) (UniProt P03420); assay: Octet endpoint assay, CR9501 on sensor, culture supernatant
B1_N67I, S215P loop = biological target: T1, B1_N67I, S215P loop; assay: Quantitative Octet, CR9501 on sensor, culture supernatant
Method: (§1) To measure concentration of the pre-fusion RSV F protein in cell culture supernatants, quantitative Octet-based method was used. […] Afterwards, the coated biosensors were blocked in mock cell culture supernatant. Quantitative experiment was performed as follows: temperature 30° C., shaking speed 1000 rpm, time of the assay 300 seconds. Concentration of the protein in the cell culture supernatant was calculated using standard curve. The standard curve was prepared for each coated antibody using the A2_F24 N67I+S215P (SEQ NO:21) protein, diluted in mock cell culture supernatant. The measurement was done on the day of supernatant harvest (day 1) and after storage of the supernatant at 4° C. for 5 days or longer. […] The data analysis was done using the FORTEBIO® Data Analysis 6.4 software (FORTEBIO®).

B1_N67I, S215P = biological target: T2, B1_N67I, S215P; assay: as above
Method: as §1

Molecule | % of CR9501 binding after 5 days at 4 C relative to day 1 (A2_F24 VI56IV (RSV A2)) [%] | % protein concentration (CR9501) after 5 days at 4 C relative to day of harvest (B1_N67I, S215P loop) [%] | % protein concentration (CR9501) after 5 days at 4 C relative to day of harvest (B1_N67I, S215P) [%]
CR9501 (antibody) | 54 | – | –
B1 | – | 108 | 90.9
